Tests used:
[1] = system: inner membrane of E. coli; format: cell-based, E. coli BL21(DE3)
[2] = system: inner membrane of E. coli; assay: G-GECO1 fluorescence screening of the 3xNNK S2168 pinholin library in microtiter plates (Example 12); settings: for Comment: effect on pore formation: measured at the half-maximum time c, N-terminal variants of S21-71; for Slope [d]: sigmoid fit with equation 1 (high d = low slope), G-GECO1; for Slope [d] / Half-maximum time [c]: pCTRL2.T7.100.sRBS library; for Half-maximum time [c]: sigmoid fit with equation 1, G-GECO1, 0.5 mM IPTG
Experimental: Colonies of BL21(DE3) on LB agar from 3. were picked and cultivated in deep well plates with 300 μl of LB medium with the necessary antibiotics overnight for about 16 h at 37° C. and 1300 rpm.
After cultivating individual clones from 4. overnight, the OD600 of the precultures in microtiter plates was adjusted to 0.1, and the samples, 200 μL each, were shaken at 37° C. and 180 rpm for 30 min. Within the framework of the pCTRL2-^3×NNKS^2168 library, 271 clones were thus picked. Within the framework of the pCTRL2.T7.100.sRBS-^3×NNKS^2168 library, 576 clones were picked.
Subsequently, all nanopore variants were then induced with 0.5 mM IPTG, and the fluorescence was measured over another 190 min.
General information: The measurement in the reader is carried out at 30° C. every 3 min. The plate is shaken at 180 rpm between the measurements. The OD600 and the fluorescence (Ex: 485 nm; Em: 525 nm) are measured. The volume in the cavities is 200 μl after addition of all inductors.
For the analysis, the curves were fitted empirically with equation 1 in order to quantitatively determine the half-maximum time c or the slope d, for example.

E. coli = assay: G-GECO1 single-cell fluorescence microscopy in a microfluidic cultivation chamber (Example 11); settings: for G-GECO1 fluorescent signal after expression: pCTRL2.T7.100 constructs, 0.5 mM IPTG
Experimental: Colonies of BL21(DE3) on LB agar plates from 1. were picked and cultivated in culture tubes with 2 ml of LB medium and the necessary antibiotics overnight for about 16 h at 37° C. and 180 rpm.
After the cultivation of individual clones from 2. overnight, the cells were transferred to fresh sterile-filtered LB medium, the OD600 of the precultures was 20 adjusted to 0.1, and subsequently grown at 37° C. for a period of 3 h up to an OD600 of 2.
For the cultivation and functional fluorescence-microscopic examination of the cells in a microfluidic cultivation chamber, it was possible to use a previously published microfluidic chip design (see Supplementary FIG. 5 in Nature Communications, 2020, 11, 2746).
After the microfluidic chip was flooded with LB medium, the cells were added and the flow rate through the microfluidic chip was adjusted to 1 μl/min. The cells were left in the microfluidic chip at 37° C. for 3 h, so that they were able to collect and grow accordingly in the cultivation chambers.
Thereafter, the expression of G-GECO1 was induced by a change to LB medium with 25 mM sodium propionate, pH 8.0, at 30° C. for 2 h.
Subsequently, the nanopores were then induced by a change to LB medium with 0.5 mM IPTG, and the development of the fluorescent signal was measured over 16 h.
The fluorescent signal was measured by means of a fluorescence microscope at 30° C. in intervals of 3 minutes. A transmitted-light image and then a fluorescence image (Ex: 488 nm; Em: 504-539 nm) in the form of a Z-stack were taken each time. From the induction of G-GECO1, a flow rate of 4 μl/min was used.
For the analysis, the entire cells from a single cultivation chamber (shown by way of example in FIG. 23) were analyzed with the aid of image analysis software (Fiji ImageJ 1.51; Nature Methods, 2012, 9, 676-82) and the fluorescence in relative fluorescence units (RFU) was plotted against the time (FIG. 24). Based on the curve of the fluorescent signal, detailed statements about the cell integrity or the outflow and the bleaching behavior of the sensor can then be made.

Molecule: HokB: Pore-forming membrane peptide; forms part of a bacterial efflux or toxin/antitoxin system (MKHNPLVVCLLIICITILTFTLLTRQTLYELRFRDGDKEVAALMACTSR; listed as Escherichia coli)
- iGluSNFr fluorescent signal after co-expression (L-Glu outflow) [1]: reduction in the fluorescence

B1: S^21-71 M4A (protein)
chain: MKSADKISTGIAYGTSAGSAGYWFLQWLDQVSPSQWAAIGVLGSLVLGFLTYLTNLYFKIREDRRKAARGE
modifications: Mutant of S21-71 anti-pinholin of bacteriophage P21
- iGluSNFr fluorescent signal after co-expression (L-Glu outflow) [1]: reduction in the fluorescence

B2: Clone P15D3 (protein)
chain: MDWDDKISTGIAYGTSAGSAGYWFLQWLDQVSPSQWAAIGVLGSLVLGFLTYLTNLYFKIREDRRKAARGE
modifications: Mutant of S21-71 anti-pinholin of bacteriophage P21
- Comment: effect on pore formation [2]: Accelerating
- Slope [d] [2]: 6.727
- Half-maximum time [c] [2]: 187.4

B3: Clone P14E5 (protein)
chain: MYLEDKISTGIAYGTSAGSAGYWFLQWLDQVSPSQWAAIGVLGSLVLGFLTYLTNLYFKIREDRRKAARGE
modifications: Mutant of S21-71 anti-pinholin of bacteriophage P21
- Comment: effect on pore formation [2]: Accelerating
- Slope [d] [2]: 4.908
- Half-maximum time [c] [2]: 166.1

B4: Clone P3G3 (protein)
chain: MWRGDKISTGIAYGTSAGSAGYWFLQWLDQVSPSQWAAIGVLGSLVLGFLTYLTNLYFKIREDRRKAARGE
modifications: Mutant of S21-71 anti-pinholin of bacteriophage P21
- Comment: effect on pore formation [2]: Inhibitory
- Slope [d] [2]: 47.62
- Half-maximum time [c] [2]: 358.7

B5: Clone P3E5 (protein)
chain: MFQWDKISTGIAYGTSAGSAGYWFLQWLDQVSPSQWAAIGVLGSLVLGFLTYLTNLYFKIREDRRKAARGE
modifications: Mutant of S21-71 anti-pinholin of bacteriophage P21
- Comment: effect on pore formation [2]: Inhibitory
- Slope [d] [2]: 28.25
- Half-maximum time [c] [2]: 483.1

B6: Clone P14C11 (protein)
chain: MNFEDKISTGIAYGTSAGSAGYWFLQWLDQVSPSQWAAIGVLGSLVLGFLTYLTNLYFKIREDRRKAARGE
modifications: Mutant of S21-71 anti-pinholin of bacteriophage P21
- Comment: effect on pore formation [2]: Accelerating
- Slope [d] [2]: 6.835
- Half-maximum time [c] [2]: 172.3

B7: Clone P7D10 (protein)
chain: MAGWDKISTGIAYGTSAGSAGYWFLQWLDQVSPSQWAAIGVLGSLVLGFLTYLTNLYFKIREDRRKAARGE
modifications: Mutant of S21-71 anti-pinholin of bacteriophage P21
- Comment: effect on pore formation [2]: Inhibitory
- Slope [d] [2]: 22.49
- Half-maximum time [c] [2]: 304.1

B8: S^21-68: Wild-type of the S^21-68 pinholin of bacteriophage P21 with pronounced and defined pore-forming properties (protein)
chain: MDKISTGIAYGTSAGSAGYWFLQWLDQVSPSQWAAIGVLGSLVLGFLTYLTNLYFKIREDRRKAARGE
modifications: Bacteriophage P21
- cell division after expression (E. coli): stop quickly
- cellular integrity measured at the form of the cells (E. coli): remains intact over a comparatively long period of time
- G-GECO1 fluorescent signal after expression (E. coli): increase quickly

B9: S^107-M3A (protein)
chain: MKAPEKHDLLAAILAAKEQGIGAILAFAMAYLRGRYNGGAFTKTVIDATMCAIIAWFIRDLLDFAGLSSNLAYITSVFIGYIGTDSIGSLIKRFAAKKAGVEDGRNQ
modifications: Mutant of S107 anti-pinholin of bacteriophage lambda
- iGluSNFr fluorescent signal after co-expression (L-Glu outflow) [1]: reduction in the fluorescence

B10: T4 holin Wild-type: Wild-type of the T4 pinholin of bacteriophage T4 with highly pronounced pore-forming properties (protein)
chain: MAAPRISFSPSDILFGVLDRLFKDNATGKVLASRVAVVILLFIMAIVWYRGDSFFEYYKQSKYETYSEIIEKERTARFESVALEQLQIVHISSEADFSAVYSFRPKNLNYFVDIIAYEGKLPSTISEKSLGGYPVDKTMDEYTVHLNGRHYYSNLKFAFLPTKKPTPEINYMYSCPYFNLDNIYAGTITMYWYRNDHISNDRLESICAQAARILGRAK
modifications: Bacteriophage T4
- cell division after expression (E. coli): stop quickly
- time window before loss of cellular integrity or outflow of the sensor (E. coli): 30 min
- time within which the fluorescent signal decreases again (E. coli): ≤ 30 min
- G-GECO1 fluorescent signal after expression (E. coli): increase quickly

— patent US20230050056A1, “METHOD FOR SCREENING PORE-FORMING MEMBRANE PROTEINS, MEMBRANE TR[…] MOLECULAR SWITCHES” (TECHNISCHE UNIVERSITÄT DARMSTADT, priority 2019, published 2023)
